Numbering of substitutions follows the chain as printed. Ends that are not written are not given here.
Tests used:
[1] = biological target: T1, MprF protein of Staphylococcus aureus (Staphylococcus aureus, UniProt Q2G2M2 1-840); experiment: whole cell ELISA on S. aureus; E. coli as negative control
T1 construct: Presented on whole S. aureus cells (Protein A deletion mutant, delta spa; SA113 delta spa in the functional assays); also called MprF on S. aureus
T1 sequence: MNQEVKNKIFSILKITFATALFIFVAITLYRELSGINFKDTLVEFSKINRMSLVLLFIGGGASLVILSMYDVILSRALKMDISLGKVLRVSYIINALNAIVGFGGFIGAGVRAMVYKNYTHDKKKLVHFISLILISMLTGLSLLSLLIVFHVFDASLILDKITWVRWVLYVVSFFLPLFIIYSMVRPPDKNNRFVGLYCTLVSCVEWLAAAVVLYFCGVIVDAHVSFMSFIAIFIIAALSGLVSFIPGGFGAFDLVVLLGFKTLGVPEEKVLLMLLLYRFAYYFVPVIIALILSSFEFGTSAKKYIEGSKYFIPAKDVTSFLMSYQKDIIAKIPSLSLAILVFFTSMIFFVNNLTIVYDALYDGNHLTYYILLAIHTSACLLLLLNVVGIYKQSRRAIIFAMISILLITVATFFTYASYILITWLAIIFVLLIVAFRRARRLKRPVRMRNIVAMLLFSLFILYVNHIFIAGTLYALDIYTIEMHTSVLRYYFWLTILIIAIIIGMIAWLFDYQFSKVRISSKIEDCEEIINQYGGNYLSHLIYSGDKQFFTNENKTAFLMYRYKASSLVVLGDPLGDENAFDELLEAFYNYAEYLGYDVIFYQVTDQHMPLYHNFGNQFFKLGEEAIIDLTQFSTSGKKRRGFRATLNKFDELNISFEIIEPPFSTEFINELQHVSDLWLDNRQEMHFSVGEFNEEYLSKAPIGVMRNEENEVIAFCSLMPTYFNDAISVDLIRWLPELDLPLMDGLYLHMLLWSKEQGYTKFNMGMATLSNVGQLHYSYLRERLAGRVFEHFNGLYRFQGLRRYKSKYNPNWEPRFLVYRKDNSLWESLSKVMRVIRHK

[2] = biological target: T1, MprF protein of Staphylococcus aureus; experiment: whole cell ELISA on S. aureus delta spa versus delta spa delta mprF
[3] = biological target: T2, Linear peptide, loop 1 of MprF (Staphylococcus aureus, added N-terminal Cysteine coupled to carrier protein BSA or transferrin; FIG. 2 legend calls it biotinylated); experiment: ELISA, IgG on the peptide used in its selection (Table 2)
T2 construct: coated as BSA or transferrin conjugate in the ELISA; also called linear loop 1 peptide
T2 peptide: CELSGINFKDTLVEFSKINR

[4] = biological target: T3, Linear peptide, loop 4 of MprF (Staphylococcus aureus, also: N-terminal Cys coupled to BSA or transferrin, called biotinylated legend); experiment: as above
T3 construct: coated as BSA or transferrin conjugate in the ELISA; also called linear loop 4 peptide
T3 peptide: CGLGFKTLGVPEEKV

B1: M-C1 (antibody, V domains shown)
VH: EVQLLESGGGLVQPGGSLRLSCAASGFTFSSYAMNWVRQAPGKGLEWVSVISSDGSDTYYADSVKGRFTISRDNSKNTLYLQMNSLRAEDTAVYYCARESYYIGWDYWGQGTLVTVSS
VL: DIVLTQSPATLSLSPGERATLSCRASQRVSSSFLAWYQQKPGQAPRLLIYLASNRATGIPARFSGSGSGTDFTLTISSLEPEDFAVYYCLQYGHYPPTFGQGTKVEIKR
notes: Framework VH3-23 kappa 3
Question: Does B1 bind [1]?
Answer: Result: binds

B2: M-L1 (antibody, V domains shown)
VH: QVQLVQSGAEVKKPGSSVKVSCKASGGTFNSYAIHWVRQAPGQGLEWMGGIIPIFGIANYAQKFQGRVTITADESTSTAYMELSSLRSEDTAVYYCARDQYTYDYYRAFDYWGQGTLVTVSS
VL: DIVLTQSPATLSLSPGERATLSCRASQSVRDNLAWYQQKPGQAPRLLIYGASNRATGIPARFSGSGSGTDFTLTISSLEPEDFAVYYCQQYDHSPRTFGQGTKVEIKR
notes: Framework VH1A kappa 3
Question: Does B2 bind [2]?
Answer: Result: binds

Question: Does B2 bind [3]?
Answer: Result: binds

B3: M-C5.1 (antibody, V domains shown)
VH: QVQLVQSGAEVKKPGSSVKVSCKASGGTFSSYAISWVRQAPGQGLEWMGGIVPIFGTANYAQKFQGRVTITADESTSTAYMELSSLRSEDTAVYYCARVRYGYWDVWGQGTLVTVSS
VL: DIQMTQSPSSLSASVGDRVTITCRASQDIANWLNWYQQKPGKAPKLLIYAASSLQSGVPSRFSGSGSGTDFTLTISSLQPEDFATYYCQQYISLPITFGQGTKVEIKR
notes: Framework VH1A kappa 1; also called M-05.1
Question: Does B3 bind [2]?
Answer: Result: binds

B4: M-C6.2 (antibody, V domains shown)
VH: QVQLVQSGAEVKKPGSSVKVSCKASGGTFSSYAISWVRQAPGQGLEWMGGIIPILGIANYAQKFQGRVTITADESTSTAYMELSSLRSEDTAVYYCARSLPYRSDLYGFSRWSYHRVGMDVWGQGTLVTVSS
VL: B3 VL with A30S, W32T, S53T, Y91V, I92G, L94F, I96Y
notes: Framework VH1A kappa 1
Question: Does B4 bind [1]?
Answer: Result: binds

B5: M-C4.2 (antibody, V domains shown)
VH: EVQLLESGGGLVQPGGSLRLSCAASGFTFSSYAMHWVRQAPGKGLEWVSVISSVGSSTYYADSVKGRFTISRDNSKNTLYLQMNSLRAEDTAVYYCARGGLDVWGQGTLVTVSS
VL: B3 VL with A30S, N31K, W32Y, S53R, Y91G, I92D, L94T, I96F
notes: Framework VH3-23 kappa 1
Question: Does B5 bind [1]?
Answer: Result: binds

B6: M-C6.1 (antibody, V domains shown)
VH: QVQLVQSGAEVKKPGSSVKVSCKASGGTFSIYAISWVRQAPGQGLEWMGGIIPEFGTANYAQKFQGRVTITADESTSTAYMELSSLRSEDTAVYYCARSQIYTLSYPKWFDFWGQGTLVTVSS
VL: B3 VL with A30S, W32Y, A50D, S53N, Q89L, I92L, S93Q, L94S, I96K
notes: Framework VH1A kappa 1
Question: Does B6 bind [1]?
Answer: Result: binds

B7: M-L4 (antibody, V domains shown)
VH: EVQLLESGGGLVQPGGSLRLSCAASGFTFRSYAMSWVRQAPGKGLEWVSIISYDGSSTYYADSVKGRFTISRDNSKNTLYLQMNSLRAEDTAVYYCARTATSGSRGYFDYWGQGTLVTVSS
VL: B3 VL with A30S, N31S, Y49F, A50G, S53T, Y91H, I92Y, S93T, L94S, I96V
notes: Framework VH3-23 kappa 1
Question: What does the source list for B7?
Answer: binding result [1]: binds; binding result [4]: binds

B8: M-C5.2 (antibody, V domains shown)
VH: EVQLLESGGGLVQPGGSLRLSCAASGFTFSSYAVHWVRQAPGKGLEWVSVISGRGGSTYYADSVKGRFTISRDNSKNTLYLQMNSLRAEDTAVYYCARDHGYFDYWGQGTLVTVSS
VL: DIQMTQSPSSLSASVGDRVTITCRASQTISNHLGWYQQKPGKAPKLLIYTASNLQSGVPSRFSGSGSGTDFTLTISSLQPEDFATYYCQQYSHSSYTFGQGTKVEIKR
notes: Framework VH3-23 kappa 1; also called M-05.2
Question: Does B8 bind [1]?
Answer: Result: binds

B9: M-C4.3 (antibody, V domains shown)
VH: QVQLVQSGAEVKKPGSSVKVSCKASGGTFSDHTISWVRQAPGQGLEWMGGIIPIVGIANYAQKFQGRVTITADESTSTAYMELSSLRSEDTAVYYCAREYYVPDSGWFDYWGQGTLVTVSS
VL: DIQMTQSPSSLSASVGDRVTITCRASQDISDYLVWYQQKPGKAPKLLIYDASNLQSGVPSRFSGSGSGTDFTLTISSLQPEDFATYYCQQYYHYRTFGQGTKVEIKR
notes: Framework VH1A kappa 1
Question: Does B9 bind [1]?
Answer: Result: binds

B10: M-C4.5 (antibody, V domains shown)
VH: QVQLQQSGPGLVKPSQTLSLTCAISGDSVSSNSAAWNWIRQSPSRGLEWLGRTYYRSKWYNDYAVSVKSRITINPDTSKNQFSLQLNSVTPEDTAVYYCARSAEPSYAYYHGFDYWGQGTLVTVSS
VL: DIQLTQSPSFLSASVGDRVTITCRASQGISSYLAWYQQKPGKAPKLLIYAASTLQSGVPSRFSGSGSGTEFTLTISSLQPEDFATYYCQQRIIFPQTFGQGTKVEIKR
notes: Selected from the MorphoSys Ylanthia library; framework VH6-1
Question: Does B10 bind [1]?
Answer: Result: binds

Source: patent publication US20150368323A1 (MorphoSys, published 2015)
